We go through one protein from PMC6891578, “An extracellular domain of the EsaA membrane component of the type VIIb secretion system: expression, purification and crystallization” (Acta Crystallographica. Section F, Structural Biology …, 2019).

This data set concerns the molecule itself. Description: SEC-MALS; Superdex 200 10/300 GL, 150 mM NaCl, 20 mM Tris–HCl pH 8.0, 3 mM DTT; 100 µl of EsaAex_2 at 4 mg/ml loaded, 0.5 ml/min.

B1: EsaAex_2 (extracellular domain of EsaA, amino acids 275–689) (domain or fragment)
chain: MSQKDSVELDNYINALKQMDSQIDQQSSMQDTGKEEYKQTVKENLDKLREIIQSQESPFSKGMIEDYRKQLTESLQDELANNKDLQDALNSIKMNNAQFAENLEKQLHDDIVKEPDTDTTFIYNMSKQDFIAAGLNEGEANKYEAIVKEAKRYKNEYNLKKPLAEHINLTDYDNQVAQDTSSLINDGVKVQRTETIKSNDINQLTVATDPHFNFEGDIKINGKKYDIKDQSVQLDTSNKEYKVEVNGVAKLKKDAEKDFLKDKTMHLQLLFGQANRQDEPNDKKATSVVDVTLNHNLDGRLSKDALSQQLSALSRFDAHYKMYTDTKGREDKPFDNKRLIDMMVDQVINDMESFKDDKVAVLHQIDSMEENSDKLIDDILNNKKNTTKNKEDISKLIDQLENVKKTFAEEPQEPK
notes: EsaA, membrane component of the type VIIb secretion system, S. aureus USA300, amino acids 275–689 of the 1009-residue protein; The His tag was cleaved with TEV protease; also called purified extracellular domain; source: E. coli BL21 Star, purified (HisTrap, TEV cleavage, Ni-NTA flowthrough, SEC); not shown: His6, N-terminal, cleaved
For the protein B1, the “stoichiometry N” value stood at 2.
